Measured values from the Immune Epitope Database (IEDB).

Assays:
Conditions in all cases: source organism: Lyssavirus rabies
[1] = biological target: HLA-A*02:01; test: IEDB peptide-MHC binding, purified MHC/direct/fluorescence; filed as Kd, often an IC50 or EC50 that approximates it; ≥ and ≤ were set here for values at or beyond the usual limits of such assays
[2] = biological target: HLA-A*02:03; test: as above
[3] = biological target: HLA-A*02:11; test: as above
[4] = biological target: HLA-A*02:19; test: as above
[5] = biological target: HLA-A*23:01; test: as above
[6] = biological target: HLA-A*24:03; test: as above
[7] = biological target: HLA-A*26:01; test: as above
[8] = biological target: HLA-B*15:01; test: as above
[9] = biological target: HLA-B*15:17; test: as above
[10] = biological target: HLA-B*27:03; test: as above
[11] = biological target: HLA-B*57:01; test: as above
[12] = biological target: HLA-C*03:03; test: as above
[13] = biological target: HLA-A*01:01; test: IEDB peptide-MHC binding, purified MHC/competitive/fluorescence; filed as Kd, often an IC50 or EC50 that approximates it; ≥ and ≤ were set here for values at or beyond the usual limits of such assays
[14] = biological target: HLA-A*11:01; test: as above
[15] = biological target: HLA-A*30:01; test: as above
[16] = biological target: HLA-A*30:02; test: as above
[17] = biological target: HLA-A*66:01; test: as above
[18] = biological target: HLA-B*07:02; test: as above
[19] = biological target: HLA-B*08:01; test: as above
[20] = biological target: HLA-B*14:02; test: as above
[21] = biological target: HLA-B*27:05; test: as above
[22] = biological target: HLA-B*40:01; test: as above
[23] = biological target: HLA-B*44:02; test: as above
[24] = biological target: HLA-B*53:01; test: as above
[25] = biological target: HLA-B*58:01; test: as above

YLDNVGVHI
Kd [1]: ≥ 20 µM | Kd [2]: ≥ 20 µM | Kd [3]: ≥ 20 µM | Kd [4]: ≥ 20 µM | Kd [5]: ≥ 20 µM | Kd [6]: ≥ 20 µM | Kd [7]: ≥ 20 µM | Kd [8]: ≥ 20 µM | Kd [9]: ≥ 20 µM | Kd [10]: ≥ 20 µM | Kd [11]: ≥ 20 µM | Kd [12]: ≥ 20 µM | Kd [13]: ≥ 5 µM | Kd [14]: ≥ 5 µM | Kd [15]: ≥ 5 µM | Kd [16]: ≥ 5 µM | Kd [17]: ≥ 5 µM | Kd [18]: ≥ 5 µM | Kd [19]: ≥ 5 µM | Kd [20]: ≥ 5 µM | Kd [21]: ≥ 5 µM | Kd [22]: ≥ 5 µM | Kd [23]: ≥ 5 µM | Kd [24]: ≥ 5 µM | Kd [25]: ≥ 5 µM
